From patent EP4714976A1 (Sunshine Lake Pharma Co., Ltd., dated 2026)

B1: 3E2 scFv displayed on phage (scFv)
scFv: EIQLQQSGAELVKPGASVKMSCKASGYTFSFYNMHWVKRTPGQGLEWIGLIYPDNGDTSYNQKFKGKATLTADTSSSTAYMQLSSLTSEDSAVYYCARGGLDYWGQGTSLTVSSGGGGSGGGGSGGGGSNIVMTQSQKFMSTSVGDRVSVTCKASQNVGTNVAWYQQKPGQSPKALIYSASYRYTGVPDRFTGSGSGTDFTFTISSVQAEDLAVYYCQQHYSTPYTFGGGTKLEIK
B2: 1B8 scFv displayed on phage (scFv)
scFv: QIQLQQSGAELVKPGASVKMSCKASGYTFASYNLHWVKQTPGQGLEWIGLIYPENGDTSYNQKFKGKATLTADTSSTTAYIQLSSLTSEDSAVYFCARGGFDYWGQGTSLTVSSGGGGSGGGGSGGGGSDIKMTQSPASLSASVGETVTITCGASENIYGALNWYQRKQGKSPQLLIYGATNLADGMSSRFSGSGSGRQYSLKISSLHPDDVATYYCQNVLSTPYTFGGGTKLEIK
B3: 3E1 scFv displayed on phage (scFv)
scFv: QVQLQQPGAEVVKPGASVKMSCKASGYTFTDYYIHWVKQTPGQGLEWIGAIYPDNGDTSYNQKFKVKATLTADKSSSTAYMQLSSLTSEDSAVYYCARAFTYWGQGTLVTVSAGGGGSGGGGSGGGGSDILITQSPASLSASVGETVTITCGASENIYGALNWYQRKQGKSPQLLIYGATNLADGMSSRFSGSGSGRQYSLKISSLHPDDVATYYCQNVLSTPYTFGGGTKLEIK
B4: 3C7 scFv displayed on phage (scFv)
scFv: EIQLQQSGAELVKPGASVKMSCKASGYIFRNYYIHWVKRTPGQGLEWIGAIYPDNGDTSYNQRFKVKATLTADTSSSTAYMQLSSLTSEDSAVYYCARAFTYWGQGTTLTVSSGGGGSGGGGSGGGGSDIQMIQSPASLSASVGETVTITCGASENIYGALNWYQRKQGKSPQLLIYGATNLADGMSSRFSGSGSGRQYSLKISSLHPDDVATYYCQNVLSTPYTFGGGTKLEIK
B5: 3D7 scFv-Fc (Fc fusion)
chain: QVQLQQSGAELVKPGASVKMSCKASGYTFSFYNMHWVKRTPGRGLEWIGLIYPDNGDTSYNQKFKGKATLTADTSSSTAYMQLSSLTSEDSAVYYCARGGLDYWGQGTSLTVSSGGGGSGGGGSGGGGSEIVLTQSPASLAVSLGQRATISCKASQSVDYDGDSYMNWYQQKPGQPPKLLIYGISNRFSGVPDRFSGSGSGTDFTLKISTIKPEDLGMYYCLQGTHQPYTFGGGTKLEIKESKYGPPCPPCPAPEAAGGPSVFLFPPKPKDTLMISRTPEVTCVVVDVSQEDPEVQFNWYVDGVEVHNAKTKPREEQFNSTYRVVSVLTVLHQDWLNGKEYKCKVSNKGLPSSIEKTISKAKGQPREPQVYTLPPSQEEMTKNQVSLTCLVKGFYPSDIAVEWESNGQPENNYKTTPPVLDSDGSFFLYSKLTVDKSRWQEGNVFSCSVMHEALHNHYTQKSLSLSLG
notes: scFv-Fc dimer
B6: 1G6 scFv displayed on phage (scFv)
scFv: EIQLQQSGAELVKPGASVKMSCKASGYTFRYYNMHWVKRTPGQGLEWIGLIYPDNGDTSYNQKFKGKATLTADTSSSTAYMQLSSLTSEDSAVYYCARGGLDYWGQGTSLTVSSGGGGSGGGGSGGGGSNIVMTQSHKFMSTSVGDRVSITCKASQDVNTDVAWYQQKPGQSPKLLIYSASYRYTGVPTRFTGSGSGTDFTFTISGVQAEDLADYYCQQHYNTPYTFGGGTKLELK
B7: 3G10 scFv-Fc (Fc fusion)
chain: EVQLQQSGPELVKPGASVKMSCKASGYTFATYNMHWVKQTTGQGLEWIGAIYPDNGDTFYNRKFKDKATLTADKSSTTAYMQLSSLTSEDSAVYYCARGDFAYWGQGTLVTVSAGGGGSGGGGSGGGGSDVLMTQSPASLSASVGETVTITCGASENIYGALNWYQRKQGKSPQLLIYGATNLADGMSSRFSGSGSGRQYSLKISSLHPDDVATYYCQNVLSTPYTFGGGTKLEMKESKYGPPCPPCPAPEAAGGPSVFLFPPKPKDTLMISRTPEVTCVVVDVSQEDPEVQFNWYVDGVEVHNAKTKPREEQFNSTYRVVSVLTVLHQDWLNGKEYKCKVSNKGLPSSIEKTISKAKGQPREPQVYTLPPSQEEMTKNQVSLTCLVKGFYPSDIAVEWESNGQPENNYKTTPPVLDSDGSFFLYSKLTVDKSRWQEGNVFSCSVMHEALHNHYTQKSLSLSLG
notes: scFv-Fc dimer
B8: 3E3 scFv displayed on phage (scFv)
scFv: QVQLQQPGAVLVKPGASVRMSCKASGYTFPYYNVHWVKRTPGQGLEWIGLIYPDNGDTSYNQKFTGKATLTADTSSSTAYMQLSSLTSEDSAVYYCARGGLDYWGQGTTLTVSAGGGGSGGGGSGGGGSDVQITQSPASLSASVGETVTITCGASENIYGALNWYQRKQGKSPQLLIYGATNLADGMSSRFSGSGSGRQYSLKISSLHPDDVATYYCQNVLSTPYTFGGGTKLEIK
B9: 3F5 scFv displayed on phage (scFv)
scFv: EIQLQQSGAELVKPGASVKMSCKASGYTFRYYNMHWVKRTPGQGLEWIGLIYPDNGDTSYNQKFKGKATLTADTSSSTAYMQLSSLTSEDSAVYYCARGGLDYWGQGTTLTVSSGGGGSGGGGSGGGGSDIVLTQSPASLSASVGETVTITCGASENIYGALNWYQRKQGKSPQLLIYGATNLADGMSSRFSGSGSGRQYSLKISSLHPDDVATYYCQNVLSTPYTFGGGTKLEIK
B10: 3F10 scFv displayed on phage (scFv)
scFv: EVQLQQSGAELVKPGASVKMSCKASGYTFSFYNIHWVRQTPGQGLEWIGLIYPDNGDTSYNQKFKAKATLTADKSSSTAYMQLSSLTSEDSAVYYCARGGFDYWGQGTTLTVSSGGGGSGGGGSGGGGSDVLMTQSPASLSASVGETVTITCGASENIYGALNWYQRKQGKSPQLLIYGATNLADGMSSRFSGSGSGRQYSLKISSLHPDDVATYYCQNVLSTPYTFGGGTKLEIK
B11: 1D7 scFv displayed on phage (scFv)
scFv: QIQLQQSGAELVKPGASVKMSCKASGYTFRYYNMHWVKRTPGQGLEWIGLIYPDNGDTSYNQKFKGKATLTADTSSSTAYMQLSSLTSEDSAVYYCARGGLDYWGQGTSLTVSSGGGGSGGGGSGGGGSDIQMTQSPSSMSASLGDRITITCQATQDIVKNLNWYQQKPGKPPSFLIYYATELAEGVPSRFSGSGSGSDYSLTISNLESEDFADYYCLQFYEFPLTFGAGTKLELK
B12: 3G10 scFv displayed on phage (scFv)
scFv: EVQLQQSGPELVKPGASVKMSCKASGYTFATYNMHWVKQTTGQGLEWIGAIYPDNGDTFYNRKFKDKATLTADKSSTTAYMQLSSLTSEDSAVYYCARGDFAYWGQGTLVTVSAGGGGSGGGGSGGGGSDVLMTQSPASLSASVGETVTITCGASENIYGALNWYQRKQGKSPQLLIYGATNLADGMSSRFSGSGSGRQYSLKISSLHPDDVATYYCQNVLSTPYTFGGGTKLEMK
B13: 2B2 scFv displayed on phage (scFv)
scFv: QLQLQQSGAELVKPGASVKMSCKASGYTFASYNLHWVKQTPGQGLEWIGLIYPENGDTSYNQKFKDKATLTADKSSTTAYIQLSSLASEDSAVYFCARGGFDYWGQGTTLTVSSGGGGSGGGGSGGGGSDIVMTQSQKFMSTSVGDRVSVTCKASQNVGTNVAWYQQKPGQSPKALIYSASYRYSGVPDRFTGSGSGTDYTLTISSVQAEDLALYYCQQHYSTPYTFGGGTKLELK
B14: 3A3 scFv displayed on phage (scFv)
scFv: QVQLQQSGAELVKPGASVKMSCKASGYTFTTYNIHWVRQTPGQGLEWIGLIYPDNGDTSYNQKFKAKATLTADKSSSTAYMHLSSLTSEDSAVYYCARGGFDYWGQGTTLTVSSGGGGSGGGGSGGGGSDIVMTQSHKFMSTSVGDRVSITCKASQDVNTDVSWYQQKPGQSPKLLIYSASYRYTGVPTRFTGSGSGTDFTFTISGVQAEDLADYYCQQHYNTPYTFGGGTRLEIK

What was measured:
[1] = target: T1, extracellular domain of FGFR2c protein (Example 1) (UniProt P21802 22-377); experiment: phage ELISA
T1 construct: extracellular domain

[2] = target: T1, extracellular domain of FGFR2c protein …; experiment: phage ELISA; remark: listed apart in the source
[3] = target: T2, recombinant cynomolgus monkey FGFR2b (cynomolgus monkey); experiment: ELISA, antibody 1ug/mL
T2 construct: extracellular domain; bought; also called cynomolgus macaque FGFR2b

FGFR2c (acro) [4] = target: T3, FGFR2c (acro) (UniProt P21802 22-377); experiment: ELISA, antibody 10 µg/mL
[5] = target: T4, human FGFR2b (Kaixia Biotechnology, catalog number FGR-HM1BB) (human, UniProt P21802-3 22-378); experiment: BLI, antibody on AHC2 sensor
T4 construct: extracellular domain; bought; also called hFGFR2b; human FGFR2b protein

FGFR2b on KATO III cells = target: T5, FGFR2b on KATO III cells (human, UniProt P21802-3 22-822); experiment: flow cytometry, KATO III cells
T5 construct: whole, on cells; also called KATO III cells that overexpress FGFR2b

FGFR2c (acro) [6] = target: T3, FGFR2c (acro); experiment: ELISA
[7] = target: T4, human FGFR2b (Kaixia Biotechnology, …); experiment: ELISA, FGFR2b coated at 1 µg/ml

T4 sequence (P21802 other isoform, or with tags, fused parts or gaps): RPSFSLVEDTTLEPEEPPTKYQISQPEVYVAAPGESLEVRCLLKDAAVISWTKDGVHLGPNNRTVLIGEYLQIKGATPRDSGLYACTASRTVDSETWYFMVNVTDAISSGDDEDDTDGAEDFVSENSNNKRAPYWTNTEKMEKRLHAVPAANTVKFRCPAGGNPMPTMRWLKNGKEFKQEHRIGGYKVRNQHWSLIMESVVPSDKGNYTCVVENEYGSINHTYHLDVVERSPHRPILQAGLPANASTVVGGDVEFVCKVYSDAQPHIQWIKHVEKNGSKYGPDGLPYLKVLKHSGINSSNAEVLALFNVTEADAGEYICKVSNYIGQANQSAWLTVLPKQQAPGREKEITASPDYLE
T1 sequence (P21802 22-377): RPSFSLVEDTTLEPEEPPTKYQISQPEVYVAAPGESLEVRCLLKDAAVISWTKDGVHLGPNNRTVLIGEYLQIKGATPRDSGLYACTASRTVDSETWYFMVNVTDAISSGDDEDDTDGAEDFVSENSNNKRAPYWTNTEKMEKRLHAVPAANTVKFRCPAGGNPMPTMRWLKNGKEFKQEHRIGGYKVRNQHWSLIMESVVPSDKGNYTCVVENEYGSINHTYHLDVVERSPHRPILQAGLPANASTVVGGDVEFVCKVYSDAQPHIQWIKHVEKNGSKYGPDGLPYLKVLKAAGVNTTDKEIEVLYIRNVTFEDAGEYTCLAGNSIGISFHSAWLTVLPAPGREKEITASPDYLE
T3 sequence (P21802 22-377): as above
T5 sequence (P21802 other isoform, or with tags, fused parts or gaps): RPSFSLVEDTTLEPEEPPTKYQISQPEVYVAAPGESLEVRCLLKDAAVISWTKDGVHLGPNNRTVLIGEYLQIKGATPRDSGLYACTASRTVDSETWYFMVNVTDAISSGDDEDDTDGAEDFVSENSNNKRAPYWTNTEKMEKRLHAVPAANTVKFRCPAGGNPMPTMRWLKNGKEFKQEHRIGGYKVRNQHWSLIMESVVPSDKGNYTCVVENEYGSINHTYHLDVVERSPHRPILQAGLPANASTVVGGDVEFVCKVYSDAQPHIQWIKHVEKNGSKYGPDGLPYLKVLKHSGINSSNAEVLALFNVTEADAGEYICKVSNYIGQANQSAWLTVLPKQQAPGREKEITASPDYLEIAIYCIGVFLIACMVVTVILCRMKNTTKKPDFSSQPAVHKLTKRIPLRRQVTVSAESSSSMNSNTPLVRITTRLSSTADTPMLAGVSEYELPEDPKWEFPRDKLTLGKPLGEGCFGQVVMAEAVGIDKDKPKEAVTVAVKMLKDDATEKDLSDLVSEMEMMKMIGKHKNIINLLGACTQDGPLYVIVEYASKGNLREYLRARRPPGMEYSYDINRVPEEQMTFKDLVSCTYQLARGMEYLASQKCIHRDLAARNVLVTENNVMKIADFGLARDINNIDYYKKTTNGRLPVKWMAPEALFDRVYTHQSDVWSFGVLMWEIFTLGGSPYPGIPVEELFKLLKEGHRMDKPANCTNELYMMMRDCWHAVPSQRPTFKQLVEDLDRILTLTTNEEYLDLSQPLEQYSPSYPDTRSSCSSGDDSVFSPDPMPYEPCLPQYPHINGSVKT

Row | Binder | OD (450 nm) value [1] | binding result [2] | further results
1 | B1 | 0.036 | no binding | 
2 | B2 | 0.082 | no binding | 
3 | B3 | 0.056 | no binding | 
4 | B4 | 0.04 | no binding | 
5 | B5 |  |  | OD (450 nm) value [3]: 3.3; OD (450 nm) value (FGFR2c (acro) [4]): 0.127; Kd [5]: 8.58 nM; koff [5]: 0.00203 s⁻¹; kon [5]: 236000 M⁻¹ s⁻¹; EC50 (FGFR2b on KATO III cells): 0.259 µg/mL; binding result (FGFR2c (acro) [6]): no binding (tested: 10 µg/mL); EC50 [7]: 0.0369 µg/mL
6 | B6 | 0.073 | no binding | 
7 | B7 |  |  | OD (450 nm) value [3]: 3.12; OD (450 nm) value (FGFR2c (acro) [4]): 0.096; Kd [5]: 6.25 nM; koff [5]: 0.00199 s⁻¹; kon [5]: 318000 M⁻¹ s⁻¹; EC50 (FGFR2b on KATO III cells): 0.149 µg/mL; binding result (FGFR2c (acro) [6]): no binding (tested: 10 µg/mL); EC50 [7]: 0.0276 µg/mL
8 | B8 | 0.033 | no binding | 
9 | B9 | 0.038 | no binding | 
10 | B10 | 0.039 | no binding | 
11 | B11 | 0.059 | no binding | 
12 | B12 | 0.042 | no binding | 
13 | B13 | 0.051 | no binding | 
14 | B14 | 0.05 | no binding | 
